doi:10.1101/2022.09.01.504486

Target: PfCelTOS
Experiment: cross-linking

## PfCelTOS (natural protein)
  stoichiometry N: 2
